Experimental data published in the Immune Epitope Database (IEDB).

How the values were obtained:
HLA-B*14:02 = assay: IEDB peptide-MHC binding, purified MHC/competitive/fluorescence; ≥ and ≤ were set here for values at or beyond the usual limits of such assays; conditions: source organism: Horsepox virus
HLA-A*32:15 = assay: IEDB peptide-MHC binding, purified MHC/competitive/fluorescence; filed as Kd, often an IC50 or EC50 that approximates it; ≥ and ≤ were set here for values at or beyond the usual limits of such assays; conditions: source organism: Vaccinia virus WR
HLA-A*68:23 = assay: as above; conditions: source organism: Vaccinia virus WR
HLA-B*15:09 = assay: as above; conditions: source organism: Vaccinia virus WR
HLA-B*39:01 = assay: as above
HLA-B*15:42 = assay: as above; conditions: source organism: Vaccinia virus WR
HLA-B*45:06 = assay: as above; conditions: source organism: Vaccinia virus WR
HLA-C*05:01 = assay: IEDB peptide-MHC binding, purified MHC/direct/fluorescence; filed as Kd, often an IC50 or EC50 that approximates it; ≥ and ≤ were set here for values at or beyond the usual limits of such assays; conditions: source organism: Vaccinia virus WR
HLA-A*03:01 = assay: as above
HLA-B*15:17 = assay: as above; conditions: source organism: Camelpox virus CMS
HLA-A*69:01 [1] = assay: as above; conditions: source organism: Camelpox virus CMS
HLA-B*15:01 [2] = assay: as above; conditions: source organism: Camelpox virus CMS
HLA-B*07:02 = assay: as above; conditions: source organism: Camelpox virus CMS
HLA-A*26:01 [3] = assay: as above; conditions: source organism: Variola virus
HLA-B*58:01 = assay: as above; conditions: source organism: Camelpox virus CMS
HLA-B*27:05 = assay: as above; conditions: source organism: Camelpox virus CMS
HLA-B*40:01 = assay: as above; conditions: source organism: Camelpox virus CMS
HLA-B*51:01 [4] = assay: as above; conditions: source organism: Camelpox virus CMS
HLA-B*18:01 [5] = assay: as above; conditions: source organism: Camelpox virus CMS
HLA-B*57:01 [6] = assay: as above; conditions: source organism: Camelpox virus CMS
HLA-B*46:01 [7] = assay: as above; conditions: source organism: Camelpox virus CMS
HLA-A*02:01 = assay: as above
HLA-A*01:01 = assay: as above; conditions: source organism: Camelpox virus CMS
HLA-A*31:01 = assay: as above; conditions: source organism: Camelpox virus CMS
HLA-B*48:01 = assay: as above; conditions: source organism: Camelpox virus CMS
HLA-A*11:01 = assay: as above; conditions: source organism: Camelpox virus CMS
HLA-B*08:01 = assay: as above; conditions: source organism: Variola virus
HLA-B*08:02 = assay: as above; conditions: source organism: Variola virus
HLA-A*69:01 [8] = assay: IEDB peptide-MHC binding, purified MHC/competitive/fluorescence; filed as Kd, often an IC50 or EC50 that approximates it; ≥ and ≤ were set here for values at or beyond the usual limits of such assays; conditions: source organism: Zaire ebolavirus
HLA-A*25:01 = assay: as above; conditions: source organism: Zaire ebolavirus
HLA-B*27:03 = assay: as above; conditions: source organism: Zaire ebolavirus
HLA-B*15:01 [9] = assay: as above; conditions: source organism: Zaire ebolavirus
HLA-A*26:01 [10] = assay: as above; conditions: source organism: Zaire ebolavirus
HLA-A*80:01 = assay: as above; conditions: source organism: Zaire ebolavirus
HLA-B*51:01 [11] = assay: as above; conditions: source organism: Zaire ebolavirus
HLA-B*18:01 [12] = assay: as above; conditions: source organism: Zaire ebolavirus
HLA-B*57:01 [13] = assay: as above; conditions: source organism: Zaire ebolavirus
HLA-B*46:01 [14] = assay: as above; conditions: source organism: Zaire ebolavirus
HLA-A*02:11 = assay: IEDB peptide-MHC binding, purified MHC/direct/fluorescence; filed as Kd, often an IC50 or EC50 that approximates it; ≥ and ≤ were set here for values at or beyond the usual limits of such assays; conditions: source organism: Zaire ebolavirus
HLA-A*29:02 = assay: as above; conditions: source organism: Zaire ebolavirus
HLA-A*68:02 = assay: as above; conditions: source organism: Zaire ebolavirus
[15] = source organism: Camelpox virus CMS
[16] = source organism: Zaire ebolavirus

MPAYIRNTL
IC50 (HLA-B*14:02): 0.453 µM | Kd (HLA-A*32:15): 0.0636 µM | Kd (HLA-A*68:23): 0.0009 µM | Kd (HLA-B*15:09): ≥ 20 µM | Kd (HLA-B*39:01; source organism: Vaccinia virus WR): 0.0364 µM | Kd (HLA-B*15:42): ≥ 5 µM | Kd (HLA-B*45:06): ≥ 5 µM | Kd (HLA-C*05:01): ≥ 20 µM | Kd (HLA-A*03:01; [15]): ≥ 20 µM | Kd (HLA-B*15:17): ≥ 20 µM | Kd (HLA-A*69:01 [1]): ≤ 0.001 µM | Kd (HLA-B*15:01 [2]): ≥ 20 µM | Kd (HLA-B*07:02): 0.0066 µM | Kd (HLA-A*26:01 [3]): 6.95 µM | Kd (HLA-B*58:01): ≥ 20 µM | Kd (HLA-B*27:05): ≥ 20 µM | Kd (HLA-B*40:01): ≥ 20 µM | Kd (HLA-B*51:01 [4]): 0.676 µM | Kd (HLA-B*18:01 [5]): 2.82 µM | Kd (HLA-B*57:01 [6]): ≥ 20 µM | Kd (HLA-B*46:01 [7]): ≥ 20 µM | Kd (HLA-A*02:01; [15]): ≥ 20 µM | Kd (HLA-A*01:01): ≥ 20 µM | Kd (HLA-A*31:01): ≥ 20 µM | Kd (HLA-B*48:01): 1.52 µM | Kd (HLA-A*11:01): ≥ 20 µM | Kd (HLA-B*08:01): 0.008 µM | Kd (HLA-B*08:02): 1.37 µM

SLTDRELLL
Kd (HLA-A*69:01 [8]): ≥ 20 µM | Kd (HLA-A*25:01): ≥ 20 µM | Kd (HLA-B*27:03): ≥ 20 µM | Kd (HLA-B*15:01 [9]): ≥ 20 µM | Kd (HLA-A*26:01 [10]): ≥ 20 µM | Kd (HLA-B*39:01; [16]): ≥ 20 µM | Kd (HLA-A*80:01): ≥ 20 µM | Kd (HLA-B*51:01 [11]): ≥ 20 µM | Kd (HLA-B*18:01 [12]): ≥ 20 µM | Kd (HLA-B*57:01 [13]): ≥ 20 µM | Kd (HLA-B*46:01 [14]): ≥ 20 µM | Kd (HLA-A*03:01; [16]): ≥ 20 µM | Kd (HLA-A*02:11): ≥ 20 µM | Kd (HLA-A*29:02): ≥ 20 µM | Kd (HLA-A*68:02): ≥ 20 µM | Kd (HLA-A*02:01; source organism: Sudan ebolavirus - Uganda (2000)): 0.0013 µM
